These results are taken from publication PMC3187862.

This data set concerns the target T1, DoeX (AsnC/Lrp family) (Halomonas elongata DSM 2581T, UniProt E1V7V9 1-158).
T1 sequence: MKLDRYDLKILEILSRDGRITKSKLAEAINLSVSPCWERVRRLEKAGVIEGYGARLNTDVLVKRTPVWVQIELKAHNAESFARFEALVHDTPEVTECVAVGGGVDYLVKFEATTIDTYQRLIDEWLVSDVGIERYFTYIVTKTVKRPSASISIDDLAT
In words: EMSA. A general note: A gel shift assay detects complexes by their altered migration in electrophoresis.

B1: F3 (dsDNA)
DNA 1: AGAGGCAGCCGGATATCGGTGACATGATCGTTTGGCGAGCGATTTC
DNA 2: GAAATCGCTCGCCAAACGATCATGTCACCGATATCCGGCTGCCTCT
Regarding B1, the binding result is on record as “binds”.
